Target: G3BP1 (human), Q13283
Test: ITC at 25 °C, peptide titrated into G3BP1

Sequence of G3BP1 (human), Q13283 (Q13283 1-139 limits assumed): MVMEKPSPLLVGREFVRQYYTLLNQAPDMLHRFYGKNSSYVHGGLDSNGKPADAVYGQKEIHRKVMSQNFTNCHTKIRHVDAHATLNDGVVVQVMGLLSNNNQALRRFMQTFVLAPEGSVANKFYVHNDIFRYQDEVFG

B1: G3BPi WT peptide without CPP (peptide)
peptide: LTFGDFDEHEVDALASGITFGDFDDW
modifications: not checked
Q: B1 was tested. Which Kd did it give?
A: Its Kd is 3.6 µM.

— patent EP4269424A1, “NOVEL ANTIVIRAL COMPOUNDS AND USE THEREOF” (priority 2022, dated 2023)
